Data on 14 molecules can be found in PMC3763551, “The tRNA recognition mechanism of the minimalist SPOUT methyltransferase, TrmL” (Nucleic Acids Research, 2013).

For data set [1], the target named is T1, EcTrmL (Escherichia coli, UniProt P0AGJ7, K42E).
T1 construct: gene trmL
As to the kind of experiment: isothermal titration calorimetry, one-site model. The format is binding.

The target in data set [2] is T2, EcTrmL (Escherichia coli, UniProt P0AGJ7, R46E).
T2 construct: gene trmL
As to the kind of experiment: isothermal titration calorimetry, one-site model. The format is binding. A general note: Isothermal titration calorimetry measures the heat released or taken up as one component is titrated into another.

Data set [3] deals with T3, EcTrmL (Escherichia coli, UniProt P0AGJ7, R129E).
T3 construct: gene trmL
As to the kind of experiment: isothermal titration calorimetry, one-site model. It is filed as binding.

Data set [4] addresses T4, EcTrmL (Escherichia coli, UniProt P0AGJ7, R45E).
T4 construct: gene trmL
As to the kind of experiment: isothermal titration calorimetry, one-site model. It is filed as binding.

Data set [5] concerns the target T5, EcTrmL (Escherichia coli, UniProt P0AGJ7, R104E).
T5 construct: gene trmL
As to the kind of experiment: isothermal titration calorimetry, one-site model. The format is binding.

For data set [6], the target named is T6, EcTrmL (Escherichia coli, UniProt P0AGJ7, R43E).
T6 construct: gene trmL
As to the kind of experiment: isothermal titration calorimetry, one-site model. The format is binding.

Data set [7] deals with T7, EcTrmL (Escherichia coli, UniProt P0AGJ7, R59E).
T7 construct: gene trmL
As to the kind of experiment: isothermal titration calorimetry, one-site model. It is filed as binding.

Data set [8] has as its target T8, EcTrmL (Escherichia coli, UniProt P0AGJ7, K81E).
T8 construct: gene trmL
As to the kind of experiment: isothermal titration calorimetry, one-site model. The format is binding.

The target in data set [9] is T9, EcTrmL (Escherichia coli, UniProt P0AGJ7, R20E).
T9 construct: gene trmL
As to the kind of experiment: isothermal titration calorimetry, one-site model. The format is binding.

Data set [10] deals with the molecule itself. As to the kind of experiment: SEC; analytical gel filtration, Superdex 75 (10/30), 20 mM Tris-HCl pH 7.5, 100 mM NaCl, 5 mM MgCl2, 5 mM beta-Me, 300 ul injected, 0.5 ml/min, against standard proteins. Background: SEC sorts molecules by how far they enter the pores of the column.
Data set [11] concerns the molecule itself. As to the kind of experiment: not stated; oligomeric state of the purified Glu single mutants in solution; the method is not named for this statement.

Positions count from the first letter of the chain named. Numbers in names are those of the source.

T6 sequence (P0AGJ7 whole entry R43E): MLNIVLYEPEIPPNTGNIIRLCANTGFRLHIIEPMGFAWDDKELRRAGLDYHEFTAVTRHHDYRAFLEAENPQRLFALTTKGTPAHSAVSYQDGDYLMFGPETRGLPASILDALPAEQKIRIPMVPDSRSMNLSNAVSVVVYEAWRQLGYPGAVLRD
T4 sequence (P0AGJ7 whole entry R45E): as the sequence (P0AGJ7 whole entry R43E) above, with E43R, R45E counted along it
T7 sequence (P0AGJ7 whole entry R59E): as the sequence (P0AGJ7 whole entry R43E) above, with E43R, R59E counted along it
T2 sequence (P0AGJ7 whole entry R46E): as the sequence (P0AGJ7 whole entry R43E) above, with E43R, R46E counted along it
T8 sequence (P0AGJ7 whole entry K81E): as the sequence (P0AGJ7 whole entry R43E) above, with E43R, K81E counted along it
T1 sequence (P0AGJ7 whole entry K42E): as the sequence (P0AGJ7 whole entry R43E) above, with K42E, E43R counted along it
T5 sequence (P0AGJ7 whole entry R104E): as the sequence (P0AGJ7 whole entry R43E) above, with E43R, R104E counted along it
T3 sequence (P0AGJ7 whole entry R129E): as the sequence (P0AGJ7 whole entry R43E) above, with E43R, R129E counted along it
T9 sequence (P0AGJ7 whole entry R20E): as the sequence (P0AGJ7 whole entry R43E) above, with R20E, E43R counted along it

As usually defined, the Kd is the free concentration of one partner at which half of the binding sites on the other are occupied at equilibrium, for simple one-to-one binding. `Nc1ncnc2c1ncn2[C@@H]1O[C@H](CSCC[C@H](N)C(=O)O)[C@@H](O)[C@H]1O` [SAH, S-adenosyl-homocysteine]: the dissociation constant (Kd) at EcTrmL [1] was found to be 20 µM; on EcTrmL [2] it was 29 µM; on EcTrmL [3] it was 19 µM; on EcTrmL [4], 29 µM; on EcTrmL [5] it was 33 µM; at EcTrmL [6], 39 µM. Besides, the Kd worked out at 27 µM on EcTrmL [7], 30 µM at EcTrmL [8] and 45 µM on EcTrmL [9].

B1: tRNA (Um34/Cm34) methyltransferase TrmL from E. coli, wild type (enzyme, UniProt P0AGJ7 1-157, looked up)
chain: MLNIVLYEPEIPPNTGNIIRLCANTGFRLHIIEPMGFAWDDKRLRRAGLDYHEFTAVTRHHDYRAFLEAENPQRLFALTTKGTPAHSAVSYQDGDYLMFGPETRGLPASILDALPAEQKIRIPMVPDSRSMNLSNAVSVVVYEAWRQLGYPGAVLRD
notes: TrmL, tRNA (Um34/Cm34) methyltransferase, E. coli; gene amplified from the genome of E. coli MT102; 157 amino acids as printed; also called EcTrmL; Yibk; source: E. coli BL21 (DE3), pET30b, purified (Ni-NTA, Superdex 75 gel filtration)
One may read the stoichiometry N as the number of molecules, sites or subunits per partner or assembly. Turning to B1, in [10], the “stoichiometry N” value turned out to be 2.

B2: EcTrmL-R45E (enzyme, E. coli, UniProt P0AGJ7 1-157, looked up)
chain: B1 chain with R45E
notes: TrmL, E. coli, 157 amino acids, with R45E; source: E. coli BL21 (DE3), pET30b, purified (Ni-NTA, Superdex 75 gel filtration)
Consider B2, for which the “stoichiometry N” value in data set [11] stood at 2.

B3: EcTrmL-R28E (enzyme, E. coli, UniProt P0AGJ7 1-157, looked up)
chain: B1 chain with R28E
notes: TrmL, E. coli, 157 amino acids, with R28E; source: E. coli BL21 (DE3), pET30b, purified (Ni-NTA, Superdex 75 gel filtration)
Take B3: the “stoichiometry N” value in data set [11] amounted to 2.

B4: EcTrmL-R74E (enzyme, E. coli, UniProt P0AGJ7 1-157, looked up)
chain: B1 chain with R74E
notes: TrmL, E. coli, 157 amino acids, with R74E; source: E. coli BL21 (DE3), pET30b, purified (Ni-NTA, Superdex 75 gel filtration)
For B4, the “stoichiometry N” value in data set [11] was 2.

B5: EcTrmL-R129E (enzyme, E. coli, UniProt P0AGJ7 1-157, looked up)
chain: B1 chain with R129E
notes: TrmL, E. coli, 157 amino acids, with R129E; source: E. coli BL21 (DE3), pET30b, purified (Ni-NTA, Superdex 75 gel filtration)
With B5, in data set [11], the “stoichiometry N” value is 2.

B6: EcTrmL-R43E (enzyme, E. coli, UniProt P0AGJ7 1-157, looked up)
chain: B1 chain with R43E
notes: TrmL, E. coli, 157 amino acids, with R43E; source: E. coli BL21 (DE3), pET30b, purified (Ni-NTA, Superdex 75 gel filtration)
On to B6, for which the “stoichiometry N” value in data set [11] was determined as 2.

B7: EcTrmL-R104E (enzyme, E. coli, UniProt P0AGJ7 1-157, looked up)
chain: B1 chain with R104E
notes: TrmL, E. coli, 157 amino acids, with R104E; source: E. coli BL21 (DE3), pET30b, purified (Ni-NTA, Superdex 75 gel filtration)
Take B7: in data set [11], the “stoichiometry N” value amounted to 2.

B8: EcTrmL-K81E (enzyme, E. coli, UniProt P0AGJ7 1-157, looked up)
chain: B1 chain with K81E
notes: TrmL, E. coli, 157 amino acids, with K81E; source: E. coli BL21 (DE3), pET30b, purified (Ni-NTA, Superdex 75 gel filtration)
Regarding B8, the “stoichiometry N” value in [11] is 2.

B9: EcTrmL-R20E (enzyme, E. coli, UniProt P0AGJ7 1-157, looked up)
chain: B1 chain with R20E
notes: TrmL, E. coli, 157 amino acids, with R20E; source: E. coli BL21 (DE3), pET30b, purified (Ni-NTA, Superdex 75 gel filtration)
As to B9, the “stoichiometry N” value in data set [11] amounted to 2.

B10: EcTrmL-K42E (enzyme, E. coli, UniProt P0AGJ7 1-157, looked up)
chain: B1 chain with K42E
notes: TrmL, E. coli, 157 amino acids, with K42E; source: E. coli BL21 (DE3), pET30b, purified (Ni-NTA, Superdex 75 gel filtration)
For B10, the “stoichiometry N” value in data set [11] worked out at 2.

B11: EcTrmL-R59E (enzyme, E. coli, UniProt P0AGJ7 1-157, looked up)
chain: B1 chain with R59E
notes: TrmL, E. coli, 157 amino acids, with R59E; source: E. coli BL21 (DE3), pET30b, purified (Ni-NTA, Superdex 75 gel filtration)
Consider B11, for which, in data set [11], the “stoichiometry N” value stood at 2.

B12: EcTrmL-R64E (enzyme, E. coli, UniProt P0AGJ7 1-157, looked up)
chain: B1 chain with R64E
notes: TrmL, E. coli, 157 amino acids, with R64E; source: E. coli BL21 (DE3), pET30b, purified (Ni-NTA, Superdex 75 gel filtration)
As to B12, in [11], the “stoichiometry N” value stood at 2.

B13: EcTrmL-R46E (enzyme, E. coli, UniProt P0AGJ7 1-157, looked up)
chain: B1 chain with R46E
notes: TrmL, E. coli, 157 amino acids, with R46E; source: E. coli BL21 (DE3), pET30b, purified (Ni-NTA, Superdex 75 gel filtration)
In the case of B13, the “stoichiometry N” value in data set [11] amounted to 2.
